Assay results reported in PMC9925492, “Reduction of phenolics in faba bean meal using recombinantly produced and purified Bacillus ligniniphilus catechol 2,3-dioxygenase” (Bioresources and Bioprocessing, 2023).

System: Cc1cccc(O)c1O
Test: purified protein
Conditions: 10 mM Mn2+, 50 mM phosphate pH 7.5, 32.5 °C

For “BLC23O (Halalkalibacterium ligniniphilum)”, which Km is on record?
The Km was 379 ± 86 µM.

What about the kcat of the same substance?
Its kcat is 0.13 ± 0.01 s⁻¹.
